{"source": "patent US20250223606", "key": {"[1]": {"tested_on": "TALED psaA Right (TALE array-split DddAtox/TadA-derived AD) (synthetic construct)", "assay": "cell_activity", "settings": "pair with P3; A6 14.66 and 12.27, A5 10.67 and 7.68; lettuce protoplasts 7 days after mRNA"}, "[2]": {"tested_on": "TALED psaA Left (TALE array-split DddAtox/TadA-derived AD) (synthetic construct)", "assay": "cell_activity", "settings": "pair with P4; A6 14.66 and 12.27, A5 10.67 and 7.68; lettuce protoplasts 7 days after mRNA; callus A5 8.4 and 7.5, A6 12.2 and 10.0"}}}
{"substance": "lettuce chloroplast psaA start codon, right half-site", "values": [{"measurement": "activity", "setting": "[1]", "result": 14.7, "unit": "% editing"}]}
{"substance": "lettuce chloroplast psaA start codon, left half-site", "values": [{"measurement": "activity", "setting": "[2]", "result": 14.7, "unit": "% editing"}]}
